{
  "source": "patent US20240261333A1",
  "about": "“NOVEL TARGETS FOR ENHANCING ANTI-TUMOR IMMUNITY” (THE BROAD INSTITUTE, INC., priority 2021, published 2024)",
  "experiment_in_all_cases": "co-IP/MS, IgG control IP of N-FLAG B3GNT2 cell lysate",
  "key": {"ATP1A1 (human)": {"target": "ATP1A1 (human) (UniProt P05023)"}, "CALU (human)": {"target": "CALU (human) (UniProt O43852)"}, "CANX (human)": {"target": "CANX (human) (UniProt P27824)"}, "CAPZA1 (human)": {"target": "CAPZA1 (human) (UniProt P52907)"}, "CAPZB (human)": {"target": "CAPZB (human) (UniProt P47756)"}, "CASP14 (human)": {"target": "CASP14 (human) (UniProt P31944)", "sequence (P31944 whole entry)": "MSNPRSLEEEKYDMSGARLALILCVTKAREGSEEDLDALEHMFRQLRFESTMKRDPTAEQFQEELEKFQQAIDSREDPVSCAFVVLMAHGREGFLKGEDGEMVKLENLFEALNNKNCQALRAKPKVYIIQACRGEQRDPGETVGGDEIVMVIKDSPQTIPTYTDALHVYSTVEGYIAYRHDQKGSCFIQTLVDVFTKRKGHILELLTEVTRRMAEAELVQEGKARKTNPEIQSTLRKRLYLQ"}, "DNAJA1 (human)": {"target": "DNAJA1 (human) (UniProt P31689)"}, "ERLIN1 (human)": {"target": "ERLIN1 (human) (UniProt O75477)", "sequence (O75477 whole entry)": "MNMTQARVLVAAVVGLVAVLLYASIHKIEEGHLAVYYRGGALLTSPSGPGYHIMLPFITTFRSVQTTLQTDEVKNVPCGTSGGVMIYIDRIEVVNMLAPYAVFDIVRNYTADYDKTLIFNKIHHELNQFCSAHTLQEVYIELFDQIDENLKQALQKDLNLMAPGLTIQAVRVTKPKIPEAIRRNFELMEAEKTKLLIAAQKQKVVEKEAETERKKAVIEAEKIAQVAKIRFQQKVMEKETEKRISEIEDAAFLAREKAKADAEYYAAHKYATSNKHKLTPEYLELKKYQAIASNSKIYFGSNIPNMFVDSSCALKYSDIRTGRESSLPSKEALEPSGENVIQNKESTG"}, "ERLIN2 (human)": {"target": "ERLIN2 (human) (UniProt O94905)"}, "FAM3C (human)": {"target": "FAM3C (human) (UniProt Q92520)", "sequence (Q92520 25-227 limits assumed)": "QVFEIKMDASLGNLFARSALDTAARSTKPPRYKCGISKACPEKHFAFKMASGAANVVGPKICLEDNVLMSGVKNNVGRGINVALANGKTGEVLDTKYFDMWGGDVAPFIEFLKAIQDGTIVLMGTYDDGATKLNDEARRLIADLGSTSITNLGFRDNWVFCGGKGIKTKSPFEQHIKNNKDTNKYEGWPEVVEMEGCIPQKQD"}, "FKBP10 (human)": {"target": "FKBP10 (human) (UniProt Q96AY3)", "sequence (Q96AY3 27-582 limits assumed)": "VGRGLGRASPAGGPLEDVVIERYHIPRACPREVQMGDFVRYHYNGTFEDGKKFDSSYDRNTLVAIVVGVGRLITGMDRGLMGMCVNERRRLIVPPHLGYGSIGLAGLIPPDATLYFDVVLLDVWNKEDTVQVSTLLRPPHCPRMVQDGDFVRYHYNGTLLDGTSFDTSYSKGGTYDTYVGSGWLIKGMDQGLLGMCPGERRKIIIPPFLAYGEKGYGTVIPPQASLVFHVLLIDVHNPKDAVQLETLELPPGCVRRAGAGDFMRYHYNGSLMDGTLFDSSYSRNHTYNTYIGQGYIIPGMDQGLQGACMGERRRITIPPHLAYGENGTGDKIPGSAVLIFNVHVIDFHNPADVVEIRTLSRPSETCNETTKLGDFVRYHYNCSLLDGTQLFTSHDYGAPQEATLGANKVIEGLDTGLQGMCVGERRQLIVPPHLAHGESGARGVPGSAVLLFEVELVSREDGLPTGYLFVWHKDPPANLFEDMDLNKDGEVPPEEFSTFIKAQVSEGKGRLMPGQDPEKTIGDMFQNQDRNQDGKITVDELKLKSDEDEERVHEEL"}, "GCN1 (human)": {"target": "GCN1 (human) (UniProt Q92616)", "sequence (Q92616 2-2671 limits assumed)": "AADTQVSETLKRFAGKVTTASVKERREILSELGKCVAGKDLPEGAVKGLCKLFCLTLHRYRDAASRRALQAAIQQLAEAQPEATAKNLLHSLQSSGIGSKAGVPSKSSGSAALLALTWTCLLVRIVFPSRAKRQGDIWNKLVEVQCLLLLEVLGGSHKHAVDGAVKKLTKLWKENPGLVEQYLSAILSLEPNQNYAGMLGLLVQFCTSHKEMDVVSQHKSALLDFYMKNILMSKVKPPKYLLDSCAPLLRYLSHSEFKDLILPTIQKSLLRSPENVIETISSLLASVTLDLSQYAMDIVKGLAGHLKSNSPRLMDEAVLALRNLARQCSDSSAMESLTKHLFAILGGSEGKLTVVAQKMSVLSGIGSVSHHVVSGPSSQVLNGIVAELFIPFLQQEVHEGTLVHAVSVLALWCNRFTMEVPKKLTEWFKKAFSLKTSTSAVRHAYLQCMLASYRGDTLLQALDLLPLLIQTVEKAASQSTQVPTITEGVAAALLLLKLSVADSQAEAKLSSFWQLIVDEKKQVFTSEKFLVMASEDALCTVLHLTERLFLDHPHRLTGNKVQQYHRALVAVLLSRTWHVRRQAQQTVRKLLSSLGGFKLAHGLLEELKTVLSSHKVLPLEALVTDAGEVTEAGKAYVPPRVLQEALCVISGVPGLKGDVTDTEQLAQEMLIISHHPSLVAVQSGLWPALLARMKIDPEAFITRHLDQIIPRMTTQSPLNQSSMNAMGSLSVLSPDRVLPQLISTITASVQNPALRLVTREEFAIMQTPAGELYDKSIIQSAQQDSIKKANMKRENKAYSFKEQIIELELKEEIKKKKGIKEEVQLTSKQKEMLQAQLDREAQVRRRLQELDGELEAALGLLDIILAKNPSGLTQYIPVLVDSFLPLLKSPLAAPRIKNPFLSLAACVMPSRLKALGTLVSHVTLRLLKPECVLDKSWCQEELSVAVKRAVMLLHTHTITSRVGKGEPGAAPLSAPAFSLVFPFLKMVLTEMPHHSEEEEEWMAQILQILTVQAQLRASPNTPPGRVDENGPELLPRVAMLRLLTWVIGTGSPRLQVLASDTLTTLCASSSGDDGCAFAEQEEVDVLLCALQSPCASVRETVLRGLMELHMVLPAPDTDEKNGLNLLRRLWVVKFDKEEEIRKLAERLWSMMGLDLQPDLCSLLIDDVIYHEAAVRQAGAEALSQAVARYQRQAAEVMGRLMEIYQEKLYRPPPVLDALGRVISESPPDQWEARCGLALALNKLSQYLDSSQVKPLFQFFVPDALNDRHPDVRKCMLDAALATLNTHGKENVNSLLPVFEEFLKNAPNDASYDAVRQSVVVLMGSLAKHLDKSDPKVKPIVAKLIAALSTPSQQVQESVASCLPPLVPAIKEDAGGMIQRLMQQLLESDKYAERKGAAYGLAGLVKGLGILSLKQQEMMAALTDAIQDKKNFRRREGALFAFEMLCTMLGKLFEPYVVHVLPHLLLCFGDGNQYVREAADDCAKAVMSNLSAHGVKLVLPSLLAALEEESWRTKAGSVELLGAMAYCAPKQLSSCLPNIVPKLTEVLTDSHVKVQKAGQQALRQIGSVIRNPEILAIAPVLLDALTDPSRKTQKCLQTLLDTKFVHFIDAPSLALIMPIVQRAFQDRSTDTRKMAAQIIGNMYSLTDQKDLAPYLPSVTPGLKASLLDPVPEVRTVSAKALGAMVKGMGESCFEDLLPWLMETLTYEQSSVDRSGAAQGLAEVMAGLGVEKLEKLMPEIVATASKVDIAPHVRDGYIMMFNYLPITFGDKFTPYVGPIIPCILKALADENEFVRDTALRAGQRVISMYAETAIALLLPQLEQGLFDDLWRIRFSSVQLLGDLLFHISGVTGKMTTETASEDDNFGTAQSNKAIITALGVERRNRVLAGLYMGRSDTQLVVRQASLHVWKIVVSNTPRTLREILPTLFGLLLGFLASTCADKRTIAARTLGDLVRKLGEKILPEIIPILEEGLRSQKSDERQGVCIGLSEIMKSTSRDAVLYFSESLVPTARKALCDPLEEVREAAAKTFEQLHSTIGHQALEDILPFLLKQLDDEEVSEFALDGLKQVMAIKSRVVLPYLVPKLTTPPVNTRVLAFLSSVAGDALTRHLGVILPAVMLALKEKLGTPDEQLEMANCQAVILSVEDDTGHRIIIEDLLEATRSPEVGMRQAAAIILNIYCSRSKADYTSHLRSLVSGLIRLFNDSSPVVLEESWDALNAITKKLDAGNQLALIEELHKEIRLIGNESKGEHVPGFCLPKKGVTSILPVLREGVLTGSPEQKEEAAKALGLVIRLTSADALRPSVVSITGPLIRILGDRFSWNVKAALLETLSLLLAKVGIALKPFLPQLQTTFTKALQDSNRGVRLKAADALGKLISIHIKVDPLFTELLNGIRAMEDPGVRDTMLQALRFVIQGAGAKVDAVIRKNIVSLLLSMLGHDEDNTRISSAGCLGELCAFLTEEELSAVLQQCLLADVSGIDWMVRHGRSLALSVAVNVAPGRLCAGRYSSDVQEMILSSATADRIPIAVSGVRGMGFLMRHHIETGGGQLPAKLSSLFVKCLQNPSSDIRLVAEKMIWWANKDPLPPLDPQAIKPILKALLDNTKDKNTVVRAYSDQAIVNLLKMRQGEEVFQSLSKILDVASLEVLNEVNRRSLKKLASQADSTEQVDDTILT"}, "HSD17B12 (human)": {"target": "HSD17B12 (human) (UniProt Q53GQ0)"}, "IPO4 (human)": {"target": "IPO4 (human) (UniProt Q8TEX9)"}, "LRP1 (human)": {"target": "LRP1 (human) (UniProt Q07954)"}, "PCBP1 (human)": {"target": "PCBP1 (human) (UniProt Q15365)"}, "PDIA6 (human)": {"target": "PDIA6 (human) (UniProt Q15084)", "sequence (Q15084 20-440 limits assumed)": "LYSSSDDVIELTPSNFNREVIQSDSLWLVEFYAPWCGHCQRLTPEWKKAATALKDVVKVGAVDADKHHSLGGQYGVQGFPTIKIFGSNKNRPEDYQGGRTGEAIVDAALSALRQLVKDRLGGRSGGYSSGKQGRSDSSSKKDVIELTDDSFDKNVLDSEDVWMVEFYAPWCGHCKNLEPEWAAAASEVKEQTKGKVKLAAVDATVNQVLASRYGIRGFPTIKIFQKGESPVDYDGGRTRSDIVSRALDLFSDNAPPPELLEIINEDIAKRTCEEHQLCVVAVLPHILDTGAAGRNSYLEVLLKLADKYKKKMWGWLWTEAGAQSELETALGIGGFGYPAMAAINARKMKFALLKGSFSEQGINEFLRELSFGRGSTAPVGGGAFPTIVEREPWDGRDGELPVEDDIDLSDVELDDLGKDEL"}, "PIP (human)": {"target": "PIP (human) (UniProt P12273)"}, "PRDX1 (human)": {"target": "PRDX1 (human) (UniProt Q06830)"}, "PRDX2 (human)": {"target": "PRDX2 (human) (UniProt P32119)"}, "RCN2 (human)": {"target": "RCN2 (human) (UniProt Q14257)", "sequence (Q14257 other isoform, or with tags, fused parts or gaps limits assumed)": "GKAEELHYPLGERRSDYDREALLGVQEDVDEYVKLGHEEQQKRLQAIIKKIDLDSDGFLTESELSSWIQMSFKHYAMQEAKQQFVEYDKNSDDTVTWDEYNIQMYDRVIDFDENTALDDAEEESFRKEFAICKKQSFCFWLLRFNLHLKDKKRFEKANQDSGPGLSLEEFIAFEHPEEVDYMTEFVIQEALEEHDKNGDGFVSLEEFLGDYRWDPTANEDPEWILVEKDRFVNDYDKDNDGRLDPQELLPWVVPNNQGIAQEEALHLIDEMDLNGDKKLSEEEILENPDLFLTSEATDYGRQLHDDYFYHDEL"}, "RPL12 (human)": {"target": "RPL12 (human) (UniProt P30050)"}, "RPL13A (human)": {"target": "RPL13A (human) (UniProt P40429)"}, "RPL14 (human)": {"target": "RPL14 (human) (UniProt P50914)"}, "RPL23A (human)": {"target": "RPL23A (human) (UniProt P62750)"}, "RPL24 (human)": {"target": "RPL24 (human) (UniProt P83731)"}, "RPL30 (human)": {"target": "RPL30 (human) (UniProt P62888)"}, "RPLPO (human)": {"target": "RPLPO (human) (UniProt P05388)"}, "RPS12 (human)": {"target": "RPS12 (human) (UniProt P25398)"}, "RPS15 (human)": {"target": "RPS15 (human) (UniProt P62841)"}, "RPS3A (human)": {"target": "RPS3A (human) (UniProt P61247)"}, "RPS5 (human)": {"target": "RPS5 (human) (UniProt P46782)"}, "RPS7 (human)": {"target": "RPS7 (human) (UniProt P62081)"}, "RPS9 (human)": {"target": "RPS9 (human) (UniProt P46781)"}, "SLC25A4 (human)": {"target": "SLC25A4 (human) (UniProt P12235)", "sequence (P12235 2-298 limits assumed)": "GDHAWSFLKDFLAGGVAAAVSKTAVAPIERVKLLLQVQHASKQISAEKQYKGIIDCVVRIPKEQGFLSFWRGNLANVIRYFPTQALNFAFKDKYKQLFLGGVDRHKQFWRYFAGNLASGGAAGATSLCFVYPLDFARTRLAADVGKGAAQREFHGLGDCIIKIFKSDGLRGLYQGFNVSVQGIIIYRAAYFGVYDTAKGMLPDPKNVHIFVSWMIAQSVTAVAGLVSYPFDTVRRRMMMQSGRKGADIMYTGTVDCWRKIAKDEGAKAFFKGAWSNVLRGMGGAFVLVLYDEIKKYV"}, "SQSTM1 (human)": {"target": "SQSTM1 (human) (UniProt Q13501)"}, "TUBB (human)": {"target": "TUBB (human) (UniProt P07437)"}, "UQCRC2 (human)": {"target": "UQCRC2 (human) (UniProt P22695)"}},
  "data": [
    {"substance": "IgG control (Millipore Sigma 12-371) (antibody)", "values": [
      {"measurement": "co-IP mass spectrometry count", "setting": "ATP1A1 (human)", "value": 0},
      {"measurement": "co-IP mass spectrometry count", "setting": "CALU (human)", "value": 0},
      {"measurement": "co-IP mass spectrometry count", "setting": "CANX (human)", "value": 0},
      {"measurement": "co-IP mass spectrometry count", "setting": "CAPZA1 (human)", "value": 0},
      {"measurement": "co-IP mass spectrometry count", "setting": "CAPZB (human)", "value": 2},
      {"measurement": "co-IP mass spectrometry count", "setting": "CASP14 (human)", "value": 3},
      {"measurement": "co-IP mass spectrometry count", "setting": "DNAJA1 (human)", "value": 0},
      {"measurement": "co-IP mass spectrometry count", "setting": "ERLIN1 (human)", "value": 0},
      {"measurement": "co-IP mass spectrometry count", "setting": "ERLIN2 (human)", "value": 0},
      {"measurement": "co-IP mass spectrometry count", "setting": "FAM3C (human)", "value": 0},
      {"measurement": "co-IP mass spectrometry count", "setting": "FKBP10 (human)", "value": 0},
      {"measurement": "co-IP mass spectrometry count", "setting": "GCN1 (human)", "value": 0},
      {"measurement": "co-IP mass spectrometry count", "setting": "HSD17B12 (human)", "value": 0},
      {"measurement": "co-IP mass spectrometry count", "setting": "IPO4 (human)", "value": 0},
      {"measurement": "co-IP mass spectrometry count", "setting": "LRP1 (human)", "value": 0},
      {"measurement": "co-IP mass spectrometry count", "setting": "PCBP1 (human)", "value": 0},
      {"measurement": "co-IP mass spectrometry count", "setting": "PDIA6 (human)", "value": 0},
      {"measurement": "co-IP mass spectrometry count", "setting": "PIP (human)", "value": 0},
      {"measurement": "co-IP mass spectrometry count", "setting": "PRDX1 (human)", "value": 5},
      {"measurement": "co-IP mass spectrometry count", "setting": "PRDX2 (human)", "value": 5},
      {"measurement": "co-IP mass spectrometry count", "setting": "RCN2 (human)", "value": 0},
      {"measurement": "co-IP mass spectrometry count", "setting": "RPL12 (human)", "value": 4},
      {"measurement": "co-IP mass spectrometry count", "setting": "RPL13A (human)", "value": 0},
      {"measurement": "co-IP mass spectrometry count", "setting": "RPL14 (human)", "value": 7},
      {"measurement": "co-IP mass spectrometry count", "setting": "RPL23A (human)", "value": 3},
      {"measurement": "co-IP mass spectrometry count", "setting": "RPL24 (human)", "value": 4},
      {"measurement": "co-IP mass spectrometry count", "setting": "RPL30 (human)", "value": 6},
      {"measurement": "co-IP mass spectrometry count", "setting": "RPLPO (human)", "value": 0},
      {"measurement": "co-IP mass spectrometry count", "setting": "RPS12 (human)", "value": 0},
      {"measurement": "co-IP mass spectrometry count", "setting": "RPS15 (human)", "value": 5},
      {"measurement": "co-IP mass spectrometry count", "setting": "RPS3A (human)", "value": 9},
      {"measurement": "co-IP mass spectrometry count", "setting": "RPS5 (human)", "value": 3},
      {"measurement": "co-IP mass spectrometry count", "setting": "RPS7 (human)", "value": 2},
      {"measurement": "co-IP mass spectrometry count", "setting": "RPS9 (human)", "value": 3},
      {"measurement": "co-IP mass spectrometry count", "setting": "SLC25A4 (human)", "value": 0},
      {"measurement": "co-IP mass spectrometry count", "setting": "SQSTM1 (human)", "value": 0},
      {"measurement": "co-IP mass spectrometry count", "setting": "TUBB (human)", "value": 10},
      {"measurement": "co-IP mass spectrometry count", "setting": "UQCRC2 (human)", "value": 0}
    ]}
  ]
}
